Drawing on paper PMC6642148, this text covers Kd for 1 substance.

The target in this assay is RAS-binding domain (RBD) of RAF1, RAF1-RBD (52–131) (Homo sapiens) (UniProt P04049). As to the kind of experiment: ITC; GMPPNP-bound KRAS. Conditions: domain or fragment. A general note: Isothermal titration calorimetry measures the heat released or taken up as one component is titrated into another.

Take “KRAS (2–169), GMPPNP-bound (from UniProt P01116-2 2-169)”: the equilibrium dissociation constant (Kd) (commonly a measure of binding affinity in units of concentration) amounted to 217 nM.
